Results on 1 substance are retold here after US20210072252A1.

In the test the target is synthetic peptide with N-terminal methionine (Example 1, on nanogel surface). The experiment in a line: single-molecule detection, TIRF microscopy; labeled NAAB on peptide immobilized on nanogel; counts per field of view.

With “wild-type E. coli methionine aminopeptidase (eMAP) (from UniProt P0AE18 1-264) (enzyme)”, the ratio of specific to non-specific binding was 2 to 1.
